In paper PMC10959958:

Target: 4-HNE-modified recombinant C99 with mutation Lys53Arg (human)
Assay: SDS-PAGE with Western blot; recombinant C99 or C99^Lys53Arg reacted with 50-fold (R)-4-HNE (25 mM HEPES, 150 mM NaCl, pH 7.4, 37 °C, 1 h); C99 detected by C1/6.1 antibody, adducts by 4-HNE antibody; oligomer bands on the gel

stoichiometry N: 2
Substance: 4-HNE-modified recombinant C99 with mutation Lys53Arg (domain or fragment)
